# Biological target: T1, preproinsulin 73-90 peptide complexed with HLA-DRB1*04:01 (human, UniProt P01903 26-254; P01911 30-266)
# T1 MHC II alpha: not shown
# T1 MHC II beta: not shown
# T1 peptide: GAGSLQPLALEGSLQKRG
# Experiment: cell-based or functional assay
row,Binder,"EC50 (nM) of CD69 upregulation, conventional CD4+ T cells + BLS-DRB1*04:01 cells, peptide titrated [nM]"
1,TCR-C (TCR) TCR alpha: RGNGKNQVEQSPQSLIILEGKNCTLQCNYTVSPFSNLRWYKQDTGRGPVSLTIMTFSENTKSNGRYTATLDADTKQSSLHITASQLSDSASYICVVGPSGGSNYKLTFGKGTLLTVNPNIQNPDPAVYQLRDSKSSDKSVCLFTDFDSQTNVSQSKDSDVYITDKTVLDMRSMDFKSNSAVAWSNKSDFACANAFNNSIIPEDTFFPSPESSCDVKLVEKSFETDTNLNFQNLSVIGFRILLLKVAGFNLLMTLRLWSS TCR beta: DSGVTQTPKHLITATGQRVTLRCSPRSGDLSVYWYQQSLDQGLQFLIQYYNGEERAKGNILERFSAQQFPDLHSELNLSSLELGDSALYFCASSGQGFLGNTEAFFGQGTRLTVVEDLNKVFPPEVAVFEPSEAEISHTQKATLVCLATGFFPDHVELSWWVNGKEVHSGVSTDPQPLKEQPALNDSRYCLSSRLRVSATFWQNPRNHFRCQVQFYGLSENDEWTQDRAKPVTQIVSAEAWGRADCGFTSVSYQQGVLSATILYEILLGKATLYAVLVSALVLMAMVKRKDF,156
2,TCR-C DS (TCR) TCR alpha: RGNGKNQVEQSPQSLIILEGKNCTLQCNYTVSPFSNLRWYKQDTGRGPVSLTIMTFSENTKSNGRYTATLDADTKQSSLHITASQLSDSASYICVVGPSGGSNYKLTFGKGTLLTVNPNIQNPDPAVYQLRDSKSSDKSVCLFTDFDSQTNVSQSKDSDVYITDKCVLDMRSMDFKSNSAVAWSNKSDFACANAFNNSIIPEDTFFPSPESSCDVKLVEKSFETDTNLNFQNLSVIGFRILLLKVAGFNLLMTLRLWSS TCR beta: DSGVTQTPKHLITATGQRVTLRCSPRSGDLSVYWYQQSLDQGLQFLIQYYNGEERAKGNILERFSAQQFPDLHSELNLSSLELGDSALYFCASSGQGFLGNTEAFFGQGTRLTVVEDLNKVFPPEVAVFEPSEAEISHTQKATLVCLATGFFPDHVELSWWVNGKEVHSGVCTDPQPLKEQPALNDSRYCLSSRLRVSATFWQNPRNHFRCQVQFYGLSENDEWTQDRAKPVTQIVSAEAWGRADCGFTSVSYQQGVLSATILYEILLGKATLYAVLVSALVLMAMVKRKDF,24.2
3,TCR-B (TCR) TCR alpha: EDKVVQSPLSLVVHEGDTVTLNCSYEVTNFRSLLWYKQEKKAPTFLFMLTSSGIEKKSGRLSSILDKKELFSILNITATQTGDSAVYLCAVNSGAGSYQLTFGKGTKLSVIPNIQNPDPAVYQLRDSKSSDKSVCLFTDFDSQTNVSQSKDSDVYITDKTVLDMRSMDFKSNSAVAWSNKSDFACANAFNNSIIPEDTFFPSPESSCDVKLVEKSFETDTNLNFQNLSVIGFRILLLKVAGFNLLMTLRLWSS TCR beta: DAEITQSPRHKITETGRQVTLACHQTWNHNNMFWYRQDLGHGLRLIHYSYGVQDTNKGEVSDGYSVSRSNTEDLPLTLESAASSQTSVYFCASSSGGLYEQYFGPGTRLTVTEDLKNVFPPEVAVFEPSEAEISHTQKATLVCLATGFYPDHVELSWWVNGKEVHSGVSTDPQPLKEQPALNDSRYCLSSRLRVSATFWQNPRNHFRCQVQFYGLSENDEWTQDRAKPVTQIVSAEAWGRADCGFTSESYQQGVLSATILYEILLGKATLYAVLVSALVLMAMVKRKDSRG,5.68
4,TCR-B DS (TCR) TCR alpha: EDKVVQSPLSLVVHEGDTVTLNCSYEVTNFRSLLWYKQEKKAPTFLFMLTSSGIEKKSGRLSSILDKKELFSILNITATQTGDSAVYLCAVNSGAGSYQLTFGKGTKLSVIPNIQNPDPAVYQLRDSKSSDKSVCLFTDFDSQTNVSQSKDSDVYITDKCVLDMRSMDFKSNSAVAWSNKSDFACANAFNNSIIPEDTFFPSPESSCDVKLVEKSFETDTNLNFQNLSVIGFRILLLKVAGFNLLMTLRLWSS TCR beta: DAEITQSPRHKITETGRQVTLACHQTWNHNNMFWYRQDLGHGLRLIHYSYGVQDTNKGEVSDGYSVSRSNTEDLPLTLESAASSQTSVYFCASSSGGLYEQYFGPGTRLTVTEDLKNVFPPEVAVFEPSEAEISHTQKATLVCLATGFYPDHVELSWWVNGKEVHSGVCTDPQPLKEQPALNDSRYCLSSRLRVSATFWQNPRNHFRCQVQFYGLSENDEWTQDRAKPVTQIVSAEAWGRADCGFTSESYQQGVLSATILYEILLGKATLYAVLVSALVLMAMVKRKDSRG,3.78

# Reference: patent publication US20250295772A1 (ABATA THERAPEUTICS, published 2025)
